# Test results published in patent US20250154253A1 (ROCKEFELLER UNIVERSITY, published 2025).
# T1: FcγRIII (mouse, UniProt P08508)
# T1 construct: also called mouse FcγRIII; mFcγRIII
# T1 sequence (receptor, looked up): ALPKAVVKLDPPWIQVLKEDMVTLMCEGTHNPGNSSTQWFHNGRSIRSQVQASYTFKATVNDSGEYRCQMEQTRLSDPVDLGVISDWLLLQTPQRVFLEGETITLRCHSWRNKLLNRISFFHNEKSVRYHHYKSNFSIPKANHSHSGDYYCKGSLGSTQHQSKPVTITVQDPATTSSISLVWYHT
# T2: FcγRI (mouse, UniProt P26151)
# T2 construct: also called mouse FcγRI; mFcγRI
# T2 sequence (receptor, looked up): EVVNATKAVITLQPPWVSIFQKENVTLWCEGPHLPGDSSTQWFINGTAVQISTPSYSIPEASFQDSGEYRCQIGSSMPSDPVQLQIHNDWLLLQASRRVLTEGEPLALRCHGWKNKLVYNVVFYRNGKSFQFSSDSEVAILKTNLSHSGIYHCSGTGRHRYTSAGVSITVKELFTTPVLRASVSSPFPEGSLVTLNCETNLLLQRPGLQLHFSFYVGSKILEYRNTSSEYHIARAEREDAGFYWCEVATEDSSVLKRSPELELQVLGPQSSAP
# T3: FcγRIIb (mouse, UniProt P08101)
# T3 construct: also called mouse FcγRIIb; mFcγRIIB
# T3 sequence (receptor, looked up): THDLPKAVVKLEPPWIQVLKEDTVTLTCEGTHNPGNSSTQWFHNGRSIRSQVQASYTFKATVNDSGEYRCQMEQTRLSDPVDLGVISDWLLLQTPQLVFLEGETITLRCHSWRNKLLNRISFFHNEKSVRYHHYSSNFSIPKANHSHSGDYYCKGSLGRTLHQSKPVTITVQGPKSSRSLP
# T4: FcγRIV
# T4 construct: also called mouse FcγRIV; mFcγRIV
# T4 chain: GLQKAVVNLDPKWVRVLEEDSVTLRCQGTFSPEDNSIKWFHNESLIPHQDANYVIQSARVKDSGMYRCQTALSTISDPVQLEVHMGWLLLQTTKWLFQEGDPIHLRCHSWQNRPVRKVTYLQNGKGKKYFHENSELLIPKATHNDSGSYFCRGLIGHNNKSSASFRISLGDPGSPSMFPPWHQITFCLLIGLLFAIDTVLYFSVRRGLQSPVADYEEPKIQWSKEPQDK
# T5: FcγRIIb (human, UniProt P31994)
# T5 construct: also called human FcγRIIb; hFcγRIIB
# T5 sequence (receptor, looked up): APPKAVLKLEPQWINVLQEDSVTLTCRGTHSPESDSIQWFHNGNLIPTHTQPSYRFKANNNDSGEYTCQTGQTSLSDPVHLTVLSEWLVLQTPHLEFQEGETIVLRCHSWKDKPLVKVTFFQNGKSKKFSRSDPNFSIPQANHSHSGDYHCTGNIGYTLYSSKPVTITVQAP
# T6: recombinant mouse CD47 (SinoBiological 57231-MNAH) (mouse, UniProt Q61735 19-140, limits assumed)
# T6 construct: Bought protein coated on ELISA plates at 1 ug/mL; also called mCD47
# T6 sequence (looked up): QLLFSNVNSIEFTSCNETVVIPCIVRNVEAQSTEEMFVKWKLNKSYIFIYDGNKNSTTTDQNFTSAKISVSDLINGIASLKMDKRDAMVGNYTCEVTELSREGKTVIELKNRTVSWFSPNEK
# B1: IgG1 D265A (antibody)
# heavy chain constant region: TKGPSVYPLAPGSAAQTNSMVTLGCLVKGYFPEPVTVTWNSGSLSSGVHTFPAVLQSDLYTLSSSVTVPSSTWPSQTVTCNVAHPASSTKVDKKIVPRDCGCKPCICTVPEVSSVFIFPPKPKDVLTITLTPKVTCVVVAISKDDPEVQFSWFVDDVEVHTAQTKPREEQINSTFRSVSELPIMHQDWLNGKEFKCRVNSAAFPAPIEKTISKTKGRPKAPQVYTIPPPKEQMAKDKVSLTCMITNFFPEDITVEWQWNGQPAENYKNTQPIMDTDGSYFVYSKLNVQKSNWEAGNTFTCSVLHEGLHNHHTEKSLSHSPGK
# notes: also called mIgG1-D265A; mouse IgG1 D265A (Fc format)
# B2: 5F9-GAALIE (antibody, human IgG1)
# heavy chain: QVQLVQSGAEVKKPGASVKVSCKASGYTFTNYNMHWVRQAPGQRLEWMGTIYPGNDDTSYNQKFKDRVTITADTSASTAYMELSSLRSEDTAVYYCARGGYRAMDYWGQGTLVTVSSASTKGPSVFPLAPSSKSTSGGTAALGCLVKDYFPEPVTVSWNSGALTSGVHTFPAVLQSSGLYSLSSVVTVPSSSLGTQTYICNVNHKPSNTKVDKRVEPKSCDKTHTCPPCPAPELLAGPSVFLFPPKPKDTLMISRTPEVTCVVVDVSHEDPEVKFNWYVDGVEVHNAKTKPREEQYNSTYRVVSVLTVLHQDWLNGKEYKCKVSNKALPLPEEKTISKAKGQPREPQVYTLPPSREEMTKNQVSLTCLVKGFYPSDIAVEWESNGQPENNYKTTPPVLDSDGSFFLYSKLTVDKSRWQQGNVFSCSVMHEALHNHYTQKSLSLSPGK
# light chain: DIVMTQSPLSLPVTPGEPASISCRSSQSIVYSNGNTYLGWYLQKPGQSPQLLIYKVSNRFSGVPDRFSGSGSGTDFTLKISRVEAEDVGVYYCFQGSHVPYTFGQGTKLEIKVDAPSVFIFPPSDEQLKSGTASVVCLLNNFYPREAKVQWKVDNALQSGNSQESVTEQDSKDSTYSLSSTLTLSKADYEKHKVYACEVTHQGLSSPVTKSFNRGEC
# notes: also called 5F9-hIgG1-GAALIE; GAALIE 5F9 ab
# B3: MIAP301-mIgG1-D265A (antibody)
# heavy: QVKLLQSGAALVKPGASVKMSCQASGYSFTDYWVTWVKQSHGQSLEWIGEIYPSNTVTNFNDNFKGKATLTVDKSTSTAYMELSRLTSEDSAIYYCTRLGNSGYRVGWFLYWGQGTLVTVISASTKGPSVYPLAPGSAAQTNSMVTLGCLVKGYFPEPVTVTWNSGSLSSGVHTFPAVLQSDLYTLSSSVTVPSSTWPSQTVTCNVAHPASSTKVDKKIVPRDCGCKPCICTVPEVSSVFIFPPKPKDVLTITLTPKVTCVVVAISKDDPEVQFSWFVDDVEVHTAQTKPREEQINSTFRSVSELPIMHQDWLNGKEFKCRVNSAAFPAPIEKTISKTKGRPKAPQVYTIPPPKEQMAKDKVSLTCMITNFFPEDITVEWQWNGQPAENYKNTQPIMDTDGSYFVYSKLNVQKSNWEAGNTFTCSVLHEGLHNHHTEKSLSHSPGK
# VL: SDTVLTQSPALAVSPGERVTISCKASESVSSHMHWYQQKPGQQPKLLIYKASNLASGVPARFSGSGSGTDFTLTIDPVEADDTATYFCQQGWNGPFTFGAGTRLELKRAVD
# notes: Heavy chain assembled from the VH entry and the constant region entry named for the Fc format; also called mIgG1-D265A Fc variant of MIAP301
# B4: MIAP301-mIgG1 (antibody)
# heavy: QVKLLQSGAALVKPGASVKMSCQASGYSFTDYWVTWVKQSHGQSLEWIGEIYPSNTVTNFNDNFKGKATLTVDKSTSTAYMELSRLTSEDSAIYYCTRLGNSGYRVGWFLYWGQGTLVTVISAS
# VL: SDTVLTQSPALAVSPGERVTISCKASESVSSHMHWYQQKPGQQPKLLIYKASNLASGVPARFSGSGSGTDFTLTIDPVEADDTATYFCQQGWNGPFTFGAGTRLELKRAVD
# notes: also called mIgG1 Fc variant of MIAP301; not shown: mouse IgG1 heavy chain constant region, wild type
# B5: MIAP301-mIgG2a (antibody)
# heavy: QVKLLQSGAALVKPGASVKMSCQASGYSFTDYWVTWVKQSHGQSLEWIGEIYPSNTVTNFNDNFKGKATLTVDKSTSTAYMELSRLTSEDSAIYYCTRLGNSGYRVGWFLYWGQGTLVTVISASTTAPSVYPLAPVCGGTTGSSVTLGCLVKGYFPEPVTLTWNSGSLSSGVHTFPALLQSGLYTLSSSVTVTSNTWPSQTITCNVAHPASSTKVDKKIEPRVPITQNPCPPLKECPPCAAPDLLGGPSVFIFPPKIKDVLMISLSPMVTCVVVDVSEDDPDVQISWFVNNVEVHTAQTQTHREDYNSTLRVVSALPIQHQDWMSGKEFKCKVNNRALPSPIEKTISKPRGPVRAPQVYVLPPPAEEMTKKEFSLTCMITGFLPAEIAVDWTSNGRTEQNYKNTATVLDSDGSYFMYSKLRVQKSTWERGSLFACSVVHEGLHNHLTTKTISRSLGK
# VL: SDTVLTQSPALAVSPGERVTISCKASESVSSHMHWYQQKPGQQPKLLIYKASNLASGVPARFSGSGSGTDFTLTIDPVEADDTATYFCQQGWNGPFTFGAGTRLELKRAVD
# notes: Heavy chain assembled from the VH entry and the constant region entry named for the Fc format; also called mIgG2a Fc variant of MIAP301; anti-mCD47 ab clone MIAP301 (mIgG2a Fc)
# B6: IgG2a (antibody)
# heavy chain constant region: TTAPSVYPLAPVCGGTTGSSVTLGCLVKGYFPEPVTLTWNSGSLSSGVHTFPALLQSGLYTLSSSVTVTSNTWPSQTITCNVAHPASSTKVDKKIEPRVPITQNPCPPLKECPPCAAPDLLGGPSVFIFPPKIKDVLMISLSPMVTCVVVDVSEDDPDVQISWFVNNVEVHTAQTQTHREDYNSTLRVVSALPIQHQDWMSGKEFKCKVNNRALPSPIEKTISKPRGPVRAPQVYVLPPPAEEMTKKEFSLTCMITGFLPAEIAVDWTSNGRTEQNYKNTATVLDSDGSYFMYSKLRVQKSTWERGSLFACSVVHEGLHNHLTTKTISRSLGK
# notes: The variable region is not specified there; also called mIgG2a; mouse IgG2a subclass (Fc format)
# B7: mouse CD47 on RBCs of WT (C57BL/6J) mice (receptor, UniProt Q61735 19-303, looked up)
# chain: QLLFSNVNSIEFTSCNETVVIPCIVRNVEAQSTEEMFVKWKLNKSYIFIYDGNKNSTTTDQNFTSAKISVSDLINGIASLKMDKRDAMVGNYTCEVTELSREGKTVIELKNRTVSWFSPNEKILIVIFPILAILLFWGKFGILTLKYKSSHTNKRIILLLVAGLVLTVIVVVGAILLIPGEKPVKNASGLGLIVISTGILILLQYNVFMTAFGMTSFTIAILITQVLGYVLALVGLCLCIMACEPVHGPLLISGLGIIALAELLGLVYMKFVASNQRTIQPPRNR
# notes: whole, on cells; The legend names the cells (RBCs from WT mice); also called mCD47 on WT RBCs
# Columns and labels:
# FcγRIII = target: T1, FcγRIII; experiment: no assay stated; drawn summary table of graded binding (- to ++++), for which the text cites Nimmerjahn et al. 2005
# FcγRI [1] = target: T2, FcγRI; experiment: as above
# FcγRIIb [2] = target: T3, FcγRIIb; experiment: as above
# FcγRIV = target: T4, FcγRIV; experiment: as above
# FcγRIIb [3] = target: T5, FcγRIIb; experiment: no assay stated; drawn summary table of graded binding (- to ++++), for which the text cites Weitzenfeld et al. 2019
# FcγRI [4] = target: T7, FcγRI (human, UniProt P12314); experiment: as above
# T7 construct: also called human FcγRI; hFcγRI
# [5] = target: T6, recombinant mouse CD47 (SinoBiological …); experiment: ELISA on plate-coated recombinant mouse CD47 (1 ug/mL), HRP-conjugated anti-IgG, absorbance 450 nm
# Procedure: All sequential steps were performed at room temperature. After washing, the plates were blocked for 1 hour with 1×PBS containing 2% BSA) and were subsequently incubated for 1 hour with serially diluted IgGs (dilutions are indicated in the figures and were prepared in blocking solution). After washing, plates were incubated for 1 hour with horseradish peroxidase conjugated anti-human or anti-mouse IgG (Jackson IummunoResearch). […] Detection was performed using a one component substrate solution (TMB), and reactions stopped with the addition of 2 M phosphoric acid. Absorbance at 450 nm was immediately recorded using a SpectraMax Plus spectrophotometer (Molecular Devices), and background absorbance from negative control samples was subtracted.
# [6] = target: T8, recombinant human SIRPα-hFc (SinoBiological 11612-H02H1) (human, UniProt P78324 31-370); experiment: flow cytometry: recombinant hSIRPα incubated with RBCs of WT mice
# T8 construct: Bought fusion protein; also called hSIRPα; recombinant hSIRPα; not shown: human Fc (hFc)
# T8 sequence (P78324 31-370 limits assumed): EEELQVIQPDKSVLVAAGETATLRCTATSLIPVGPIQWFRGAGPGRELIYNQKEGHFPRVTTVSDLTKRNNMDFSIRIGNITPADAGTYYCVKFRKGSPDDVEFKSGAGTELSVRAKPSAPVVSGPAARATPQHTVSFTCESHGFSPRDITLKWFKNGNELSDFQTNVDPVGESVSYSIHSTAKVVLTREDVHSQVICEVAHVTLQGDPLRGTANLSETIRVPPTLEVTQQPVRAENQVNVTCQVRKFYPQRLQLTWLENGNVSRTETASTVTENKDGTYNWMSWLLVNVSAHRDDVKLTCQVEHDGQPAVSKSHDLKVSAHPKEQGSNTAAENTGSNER
# T7 sequence (P12314 16-288 limits assumed): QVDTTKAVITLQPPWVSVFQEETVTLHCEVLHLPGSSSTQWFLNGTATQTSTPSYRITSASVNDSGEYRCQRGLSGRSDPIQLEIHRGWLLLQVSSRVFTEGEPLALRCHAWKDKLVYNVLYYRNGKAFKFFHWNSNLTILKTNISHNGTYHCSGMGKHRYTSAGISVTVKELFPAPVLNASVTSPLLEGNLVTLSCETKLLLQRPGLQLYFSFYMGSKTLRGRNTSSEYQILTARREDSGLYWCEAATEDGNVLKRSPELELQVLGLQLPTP
binder,measurement,setting,value
B1,binding result,FcγRIII,no binding
same,binding result,FcγRI [1],no binding
same,binding result,FcγRIIb [2],no binding
same,binding result,FcγRIV,no binding
B2,binding result,FcγRIIb [3],binds
same,binding result,FcγRI [4],binds
B3,binding result,[5],binds
B4,binding result,[5],binds
B5,binding result,[5],binds
B6,binding result,FcγRIII,binds
same,binding result,FcγRI [1],binds
same,binding result,FcγRIIb [2],binds
B7,binding result,[6],no binding
